According to the nanobody polyreactivity screen of Harvey et al. (2022):

Experiment: yeast display, Sf9 membrane polyspecificity reagent, FACS + sequencing; frameworks hold sequencing errors
In short: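 Polyreactivity labels are assigned by the sorting gate from which each nanobody was recovered. The gates were low and high (top ~1%), set on anti-HA fluorescence for expression and streptavidin fluorescence for reagent binding. Before sorting, galactose-induced (36–48 hours) yeast display cells were stained for 1 hour at 4 °C with 10% biotinylated, detergent-solubilized Sf9 membrane reagent.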

Sequence	polyreactivity (PSR sort gate)
QVQLVESGGGLVQAGGSLRLSCAASGFIFVDYDMGWYSQAPGKERELVAAINWSGGSTDYADSVKGRFTISRDNAKNTVYLQMNSLKPEDTAVYYCAAEGQDGRFYWGQGTQVTVSS	low polyreactivity
QVQLVESGGGLLQAGGSLRLSCAASGSIFTLYDMGRYRQAPGKERELVAAITSGGSTDYADSVKGRFTISRDYAKNTVFLQMNSLKPEDTAVYYCNAEAYPYWYRGASRDYDYWGQGTQVTVSS	low polyreactivity
QVQLVETGGGLVQAGGSLRLSCAASGLIFRNNVMGWYRQAPGKERELVAAIRESGGRTYYADSVKGRFTISRDNAKNTVYLQMNSLKPEDTAVYYCAADSRVGFGRLYGYWGQGTQVTVSS	high polyreactivity
QVQLVESGGGLVQAGGSLRLSCAASGRTFPGYAMGWYRQAPGKERELVATITGNGGSTYYADSVKGRFTISRDNAKNTVYLQMNSLKPEDTAVYYCAAGRRRPYVRAYRGTDYWGQGTQVTVSS	low polyreactivity
QVQLVESGGGLVQAGGSLRLSCAASGSIFGNNAMGWYRKAPGKERELVAAISSGGSTKYADSVKGRFTISRDNAKNTVYLQMNSLKPEDTAVYYCAKDSWSRAYSWATRVHWRYDYWGQGTQVTVSS	low polyreactivity
QDQLVESGGGLVQAGGSLRLSCAASGSIFYRNAMGWYRQAPGKERELVAAITRGGITNYADSVKGRFTISRDNAKNTVYLQMNSLKPEDTAVYYCPRVPGRTTQYDYWGQGTQVTVSS	low polyreactivity
QVQLVESGGGLVQAGGSLRLSCAASGRIFYPNAMGWYRQARGKERELVAGISSGGGRTYYADSVKGRFTISRDNAKNTVYLQMNSLKPEDTAVYYCATVGRGYDERHNYWGQGTQVTVSS	high polyreactivity
QVQLVESGGGLVQAGGSLRLSCAASGFTFQYYAMGWYRQAPGKERELVAAISRSGGSTYYADSVKGRFTISRDNAKNTVYLQMNSLKPEDTAVYYCAKDRVGARRTDYDYWGQGTQVTVSS	high polyreactivity
QVQLVESGGCLVQAGGSLRLSCAASGRTFSSNALGWYRHAPGKERELVAAITTTGGRTYYADSVKGRFTISRDNAKNTVYLQMNSLKPEDTAVYYCAARRRYGYDFWGHGTQVTVSS	high polyreactivity
QVQLVESGGGLVQAGGSLRLSCAASGSIFDSNAKGWYRQAPGKERELVAAITGSGSTNYADSVKGRFTFSRDNAKNTVYLQMNSLKPEDTAVYYCNAQAPYTEFDYWGQGTQVTVSS	low polyreactivity
QVQLVESGGGLVQAGGSLRLSCAASGRIFPYYAMGRYRQAPGKERELVARITRNGGTTYYADSVKGRFTISRDNAKNTVYLQMNSLKPEDTAVYYCAATYSVPYYRSWPEYDYWGQGTQVTVSS	high polyreactivity
QVQLVESGGGLVQVGCSLRLSCAASGFTFYNNVMGWYRQAPGKERELVAAITSTGSTSYADSVKGRFTISRDNAKNTVYLQMNSLKPEDTAVVYCARAYYYLLGGHYRHKYYWGQGTQVTVSS	high polyreactivity
QVQLVESGGGLVQAGGSLRLSCAASGYIFDYYAMGWYRQAPGKERELVAAISSSGGTTYYADSVKGRFTISRDNAKNTVYLQMNSLKPEDTEVYYCAARKSRWHRGYYYWGQGTQVTVSS	high polyreactivity
QVQLVESGGGLVQEGGSLRLSCAASGFTFRWYAMGWYRQPPRKERELFAVISSGGRTYYADSVKGRFTISRDNAKNTVYLEKNSLKPEDTAVYSCAAEFTDHYPDYWGYPLYDYWGQGTQVTVSS	high polyreactivity
QVQLVESAGGLVQAGGSLRLSCAASGRIFSPYAMGWYRQAPGKERELVAAIDWDGGGTYYADSVKGRFTISRDNAKNTVYLQMNSLKPEDTAVYYCAAETDLANGTSPSDYWGQGTQVTVSS	low polyreactivity
QVQLVESGGGLVQAGGSLRLSCAASGFIMQYNAMGRYIQAPRKERELVAAITRSGVSTHYADSVKGRYTISRDNAKNTVYLQMISLKPEDTAVYYCARTGQSLYSRYYYWGQGTQVTVSS	low polyreactivity
QVQLVESGGGLVQAGGSLRLSCAASGRIFYANVMGWYRQAPGKEREFVSAIRWSGGRSYYADSVKGRFTISRDNAKYTVYLQMNSLKPEDTAVYYCAADGRVQSPQKFGYDYWGQGTQVTVSS	low polyreactivity
QVHLVESGGGLVQAGGSLRLSCAASGIIFAPNAMGWYRQAPGKEREVVAGISSRGGSTYYADSVKGRFTISRDNAKNTVYLQMNSLKPEDTAVYYCAADLSYNPDEYWGQGTQVTVSS	low polyreactivity
QVQLVESGGGLVQAGCSHRLSCSSTGRTFYIYDMGRYRQAPGKERELVAVISWSGGDTNYADSVKGRFRISRDNAKNTVYLQMNSLKPEDTAVYYCAATRRDRRKSFTYRYDYWGQGTQVTVSS	high polyreactivity
QVQLVESGGGLVQAGGSLRLSCAASGRIFPYYAMGWYRQAPGKERELVASIRYSAGNTYYADSVKGRFTISRDNAKNTVYLQMNSLKPEDTAVYYCAKLYRSYTIRPVWGRYDYWGQGTQVTVSS	low polyreactivity
QVQLVESGGGLVQAGGSLRLSCAASGSTSPRNAMGWYRQAPGKERELVAAISSGGRTNYADSVKGRFTISRDNAKNTVYLQMNSLKPEDTAVYYCAAEVQSTYWGQGTQVTVSS	low polyreactivity
QVQLVESGGGLVQAGGSLRLSCAASGSIFDYNCMGWYRQAPGKESELVATITLSTARTYYADSVKGRFTISRDNAKNTVYLQMNRLKPEDTAVYYCATRYPKFRRRNYWGQGTQVTVSS	high polyreactivity

Sequence	polyreactivity (PSR sort gate)
QDQLVESGGGLVQAGGSLRLSCAASGLTFFYYAMGWSRQSPGKERELVAAISRGGSTYYADSVKGRFTISRDHAKYTVYLQMKSLNPEDTAVYYCAAKTYQKEIVRPMYYWGQGTQVTVSS	high polyreactivity
QVQLLESGGGLVQAGGSLRLSCAASGSTFDSYEMGWYRQAPGKERELVAGISYSSDRTYYADSVKGRFTISRDNAKNTVYLQMNSLKPEDTAVYYCAKDHTGTVQYPLDYWGQGTQVTVSS	low polyreactivity
QVQLVESGGGLVQAGGSLRLSCAASGFIFRGYTMGWYRQAPGKERELVAAITTTSSTYYADSVKGRFTISRDNAKNTVYLQMNSLKPEDTAVYYCAALFYRYGYLYNYWGQGTQVTVSS	high polyreactivity
QVQLVEAGLGLVQAGGSLRLSCAASGFIFVANAMVWYRQAPGKERELVAAISFSSTSTRYADSVKGRFTISRDNAKNTVYLQMNSLKPEDTAVYYCAVDLTFSEFDYWGQGTQVTVSS	low polyreactivity
QVQHVESGGGLVQAGGSLRLSCAASGLIFRYYVKGWYRPAPGKERDLDAGITSSGGYTFYAESVKGRFTISRDNAKNTVYLQMNSLKPDDTAVYYCAARRPYAYARSSRYDYWGQGTQVSVSS	high polyreactivity
QVQLVESGGGLVQAGGSLRLSCAASGSTSLINVMGWYRQAPGKERELVAAISSSDGSTYYADSVKGRFTISRDNAKNTVYLQMNSLKPEDTAVYYCNADYYGYYGLMGYWGQGTLVTVSS	low polyreactivity
QVQLEESGGGLVQAGGRLRLSCAASGRTFGANAMGWYRQAPGKERELVATIRRGGSTYYADSVKGRFTISRDNAKNTFYLQMHSLKPEDTAVYYCATQYHSYAKEYDYWGQGTQVTVSS	low polyreactivity
QDQLVESGGGLVQAGGSLRLSCAASGLIFRHYAMGWSRQAPGKERELVAAITWSGGSTYYADSVKGRFTISRDNAKNTVYLQMNSLKAEDTAVYYCAAEGTGYSVGWQYGYWGQGTQVTVSS	low polyreactivity
HVPLVESGGGLVQAGGSLRLSCAASGSIFVWYVMGWYRQAPGKEWELVAAITWSAARTYYADSVKGRFTISRDNAKITVYLQMNSLKPEDTAVYYGAADPVSYQPSSRIFDYWGQATQVTVSS	low polyreactivity
QVQRVESGGGLVQAGGSLRLSCAASGRIFSANAMGWYRQAPGKERELVATISTGGGRTYYADSVKGRFTISRDNAKNTVYLQMNSLKPEDTAVYYCNATRNYARVRYYYWGQGTQVTVSS	high polyreactivity
QVQLVESGGGLVQAGGSLRLSCAASGRIFANNAMGWYRQAPGKERELVAAINWSGSRTYYADSVKGRFTISRDNAKNTVYLQMNSLNPEDTAVYYCAAVGRWGVTGSHHDAYDYWGQGTQVTVSS	high polyreactivity
QVQLVESGGGLVQAGGSLRLSCADSGSTFGLYAMGGYRQSPGKEREMVAAITWGGGSTYYADSVKVRFTISRDNAKNTVYFQMNSLKPEDTAVYYCAASPIYPVYRRHGYWGQGTQVTVSW	high polyreactivity
QVHLVESGGGLVQAGGSLRLSCAASGRIFGEYAMGWYRQAPGKERELVAAISYRGGRTYYADSVKGRFTISRDNAKNTVYLQMNSLKPEDTAVYYCAKTNRDEYDYWGQGTQVTVSS	high polyreactivity
QVQLVESGGGLVQAGGSLRLSCAASGRTFLSYAMGWYRQAPGKERELVATITRRGGSTYYADSVKGRFTISRDNAKNTVYLQMNSLKPEDTAVYYCAAYYRQYSSSEFGYWGQGTQVTVSS	high polyreactivity
QVQLVESGGGLVQAGGSLSLSCAAMGWYRQAPGKERELVATITWSGGSTYYADSVKGRFTISRDNAKNPVYLQMNSLKPEDTAVYYCNARATLLSPANTIRGYDYWGQGTQVTVSS	low polyreactivity
QLQLVESGGGLVQAGGSLRLSCAHSGRTFYVNAIGWSRQAPRKERELVATITDRGGRSYYADSVKGRFTISRDNAKNSVYLQMTSLKPEDTAVYYCAATRWYEVDYWGQGTQVTVSS	low polyreactivity
QVQLVESGGGLVQAGGSLRLSCAASGLIFRTYTMGWYRQAPGKERELVAAISASGGRTYYADSVKGRFTISRDTAKNTVYLQMNRLKPEDTAVNYFNARVNYKGYDSWGQGTQVTVSS	high polyreactivity
QVQLVESGGGLVQAGGSLRLSCAASGNTIHWNFMGWYRQATGKERELVATITFSGSSTYYADSVKGRFTISRDNAKNTVYLQMNSLKPEDTAVYYCAKDFLGDGTSIEYGGSEYDYWGQGTQVTVSS	low polyreactivity
QVQLVESGGGLVQAGGSLRLSCAASGFIFGANAMGWYRPAPGKESELVAAISWNGGRTYYADSVKWRFTISRDNAKNTVYLQMNSLKPEDTAVSYCAATGWYGLPTSYRVNYWGQGTQVTVSS	high polyreactivity
QVQLVESGGGLVQAGGSLRLSCAASGFTFVVYDMGWYRQAPGKESELVAVINNSGGSTYYADSVKGRFTISRDNAKNTVSLQMNSLKPEDTAVYYCATRTPVWVNTESDYWGQGTQVTVSS	low polyreactivity
QVQLVESGGGLVQAGGSLRLSCAASGITFRPYPMGWYRQAPGKERELVATINWSGGSTYYADSVKGRFTISRDNAKKTVYLQMNSLKPEDTAVSYCAVTWYVRRWYGYWGQGTQVTVSS	high polyreactivity
